Test results as given in publication PMC3677924, “Biochemical and Functional Analysis of Drosophila-Sciara Chimeric Sex-Lethal Proteins”.

T1: SXM (GST-SXL Drosophila) (Drosophila melanogaster, UniProt P19339 1-354)
T1 sequence: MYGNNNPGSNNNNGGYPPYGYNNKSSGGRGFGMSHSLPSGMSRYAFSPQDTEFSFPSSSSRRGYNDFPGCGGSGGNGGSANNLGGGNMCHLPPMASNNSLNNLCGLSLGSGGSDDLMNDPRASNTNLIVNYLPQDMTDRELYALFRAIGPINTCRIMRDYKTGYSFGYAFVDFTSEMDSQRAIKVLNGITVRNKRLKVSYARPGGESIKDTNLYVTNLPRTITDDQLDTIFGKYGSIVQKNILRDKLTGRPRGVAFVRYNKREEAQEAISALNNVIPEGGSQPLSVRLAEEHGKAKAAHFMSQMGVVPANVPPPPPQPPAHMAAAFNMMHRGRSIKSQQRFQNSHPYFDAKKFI

T2: SXS (GST-SXL Sciara) (Sciara ocellaris, UniProt Q86QM9 1-287)
T2 sequence: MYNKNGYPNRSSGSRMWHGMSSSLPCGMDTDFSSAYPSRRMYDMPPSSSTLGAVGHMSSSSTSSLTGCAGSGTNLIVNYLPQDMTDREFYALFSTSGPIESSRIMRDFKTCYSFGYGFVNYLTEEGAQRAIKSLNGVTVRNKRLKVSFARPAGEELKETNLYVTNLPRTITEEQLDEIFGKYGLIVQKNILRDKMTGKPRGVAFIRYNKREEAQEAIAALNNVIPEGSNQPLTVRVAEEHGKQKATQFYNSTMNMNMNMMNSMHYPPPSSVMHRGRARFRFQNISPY


Columns and labels:
Conditions in all cases: protein: recombinant; tags: GST; label: fluorescein (RNA labelling mix)
[1] = molecular target: T1, SXM (GST-SXL Drosophila); experiment: EMSA; apparent Kd, Hill fit; error 95% CI; 20 mM Hepes pH 8.0, 0.1 M KCl, 0.5 mM EDTA, 1 mM DTT, 0.05% NP40, 20% glycerol, 3 µg yeast tRNA; 5 min on ice, then 10 min at room temperature with RNA; 5% native PAGE, 0.25x TBE
[2] = molecular target: T1, SXM (GST-SXL Drosophila); experiment: EMSA; cooperative, Hill n>2; error 95% CI; 20 mM Hepes pH 8.0, 0.1 M KCl, 0.5 mM EDTA, 1 mM DTT, 0.05% NP40, 20% glycerol, 3 µg yeast tRNA; 5 min on ice, then 10 min at room temperature with RNA; 5% native PAGE, 0.25x TBE
[3] = molecular target: T2, SXS (GST-SXL Sciara); experiment: EMSA; Hill n=1; error 95% CI; 20 mM Hepes pH 8.0, 0.1 M KCl, 0.5 mM EDTA, 1 mM DTT, 0.05% NP40, 20% glycerol, 3 µg yeast tRNA; 5 min on ice, then 10 min at room temperature with RNA; 5% native PAGE, 0.25x TBE

| Binder | Kd [1] [nM] | Kd [2] [nM] | Kd [3] [nM] |
| --- | --- | --- | --- |
| ACAUAUUUUUUUUCACAGC (ssRNA) [single poly(U) SXL site] | 150000 ± 20000 | – | – |
| CAUGAUUAUUUUUUUUUAUUUUUUUUCGGUGA (ssRNA) [double poly(U) SXL site] | – | 500 ± 300 | 300 ± 200 |
